# Laboratory results from publication PMC6002512, “The Defense-Related Isoleucic Acid Differentially Accumulates in Arabidopsis Among Branched-Chain Amino Acid-Related 2-Hydroxy Carboxylic Acids” (Frontiers in Plant Science, 2018).
# Key:
# Format in all cases: biochemical, Arabidopsis thaliana
# [1] = substrate: CC(C)CC(O)C(=O)O; assay: HPLC with radiodetection of glucosylated product, non-linear regression; conditions: 2 mM 14C-UDP-glucose, 0.1 M Tris-HCl pH 7.5, 30°C
# Source text: (§1) HPLC with radiodetection of glucosylated product, non-linear regression on UGT76B1
# [2] = substrate: CC[C@H](C)[C@H](O)C(=O)O; assay: as above; conditions: 2 mM 14C-UDP-glucose, 0.1 M Tris-HCl pH 7.5, 30°C
# Source text: as §1
# purified protein = substrate: O=C(O)c1ccccc1O; assay: purified protein; conditions: 2 mM UDP-glucose, 0.1 M Tris-HCl pH 7.5, 30°C
protein,measurement,setting,value
"UGT76B1 (Arabidopsis thaliana) (protein, full coding region including the 5' ATG codon cloned into pDEST15; N-terminal GST fusion; recombinant) METRETKPVIFLFPFPLQGHLNPMFQLANIFFNRGFSITVIHTEFNSPNSSNFPHFTFVSIPDSLSEPESYPDVIEILHDLNSKCVAPFGDCLKKLISEEPTAACVIVDALWYFTHDLTEKFNFPRIVLRTVNLSAFVAFSKFHVLREKGYLSLQETKADSPVPELPYLRMKDLPWFQTEDPRSGDKLQIGVMKSLKSSSGIIFNAIEDLETDQLDEARIEFPVPLFCIGPFHRYVSASSSSLLAHDMTCLSWLDKQATNSVIYASLGSIASIDESEFLEIAWGLRNSNQPFLWVVRPGLIHGKEWIEILPKGFIENLEGRGKIVKWAPQPEVLAHRATGGFLTHCGWNSTLEGICEAIPMICRPSFGDQRVNARYINDVWKIGLHLENKVERLVIENAVRTLMTSSEGEEIRKRIMPMKETVEQCLKLGGSSFRNLENLIAYILSF",Km,[1],461 ± 79 µM
same,kcat,[1],0.582 ± 0.035 s⁻¹
same,kcat/Km,[1],1260 M⁻¹ s⁻¹
same,Km,[2],472 ± 97 µM
same,kcat,[2],0.914 ± 0.067 s⁻¹
same,kcat/Km,[2],1940 M⁻¹ s⁻¹
same,Km,purified protein,151 ± 28 µM
same,kcat,purified protein,0.331 ± 0.016 s⁻¹
same,kcat/Km,purified protein,2200 M⁻¹ s⁻¹
